From PMC3558457

Target: IL-4 receptor α (IL-4Rα) (UniProt P24394)
Chain of UniProt P24394 (P24394 26-825): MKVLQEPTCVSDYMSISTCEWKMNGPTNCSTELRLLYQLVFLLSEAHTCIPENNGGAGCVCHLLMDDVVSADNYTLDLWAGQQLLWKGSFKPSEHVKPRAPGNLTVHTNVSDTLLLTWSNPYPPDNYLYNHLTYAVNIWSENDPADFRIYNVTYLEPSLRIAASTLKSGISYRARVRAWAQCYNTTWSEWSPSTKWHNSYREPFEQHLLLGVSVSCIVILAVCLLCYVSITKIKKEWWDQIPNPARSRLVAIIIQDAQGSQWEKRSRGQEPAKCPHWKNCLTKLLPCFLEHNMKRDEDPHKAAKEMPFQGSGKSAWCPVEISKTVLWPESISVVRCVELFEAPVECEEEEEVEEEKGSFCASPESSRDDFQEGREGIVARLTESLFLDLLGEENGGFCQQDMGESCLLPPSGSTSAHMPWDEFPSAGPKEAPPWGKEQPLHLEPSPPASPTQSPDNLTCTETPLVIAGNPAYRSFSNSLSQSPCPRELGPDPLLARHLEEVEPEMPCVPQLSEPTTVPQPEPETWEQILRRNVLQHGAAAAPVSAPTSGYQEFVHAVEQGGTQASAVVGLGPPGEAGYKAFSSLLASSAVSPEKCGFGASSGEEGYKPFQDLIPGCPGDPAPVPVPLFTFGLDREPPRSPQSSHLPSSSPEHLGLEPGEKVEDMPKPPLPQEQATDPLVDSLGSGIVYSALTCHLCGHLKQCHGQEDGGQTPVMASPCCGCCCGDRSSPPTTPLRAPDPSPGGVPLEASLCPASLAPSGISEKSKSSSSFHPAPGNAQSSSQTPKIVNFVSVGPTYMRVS

Wildtype human IL-4 (from UniProt P05112 25-153) (ligand)
TF-1 cell proliferation, dose dependency for wild-type human IL-4 (EC50): 0.01 to 0.02 nM
